Test results reported in US20250163182A1 (Janssen / Centocor, published 2025).

Experiments:
human ENPP3 on cells [1] = target: T1, human ENPP3 on cells (human, UniProt O14638 1-875); assay: cell-based or functional assay
T1 sequence (looked up): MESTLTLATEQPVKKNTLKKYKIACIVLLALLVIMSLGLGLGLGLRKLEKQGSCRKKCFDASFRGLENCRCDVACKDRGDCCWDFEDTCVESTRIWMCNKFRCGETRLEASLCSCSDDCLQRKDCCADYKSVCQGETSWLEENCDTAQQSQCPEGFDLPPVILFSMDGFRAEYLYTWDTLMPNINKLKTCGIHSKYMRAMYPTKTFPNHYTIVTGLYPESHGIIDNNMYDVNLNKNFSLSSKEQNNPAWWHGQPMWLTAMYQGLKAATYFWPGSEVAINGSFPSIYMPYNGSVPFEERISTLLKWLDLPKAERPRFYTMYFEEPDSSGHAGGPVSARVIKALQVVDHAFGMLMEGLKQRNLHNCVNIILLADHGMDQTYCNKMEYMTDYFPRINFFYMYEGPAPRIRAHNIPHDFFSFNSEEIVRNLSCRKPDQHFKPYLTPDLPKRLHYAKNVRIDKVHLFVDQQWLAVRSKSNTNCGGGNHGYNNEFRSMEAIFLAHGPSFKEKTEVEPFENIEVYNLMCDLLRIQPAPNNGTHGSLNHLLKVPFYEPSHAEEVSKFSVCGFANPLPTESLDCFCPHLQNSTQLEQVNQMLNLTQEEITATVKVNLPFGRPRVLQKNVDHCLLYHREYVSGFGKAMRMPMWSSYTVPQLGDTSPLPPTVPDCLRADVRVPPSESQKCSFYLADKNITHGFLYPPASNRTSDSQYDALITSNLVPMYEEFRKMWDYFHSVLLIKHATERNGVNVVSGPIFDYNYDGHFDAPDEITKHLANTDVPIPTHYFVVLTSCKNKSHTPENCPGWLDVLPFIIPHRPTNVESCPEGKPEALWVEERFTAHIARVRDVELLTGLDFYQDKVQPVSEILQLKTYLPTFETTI

human ENPP3 on cells [2] = target: T1, human ENPP3 on cells; assay: flow cytometry on CHO ENPP3 OE cells
human CD3 on T cells = target: T2, human CD3 on T cells (human, UniProt P07766 23-207); assay: flow cytometry on human T cells, donor 110048457
T2 construct: on T cells it stands in the TCR-CD3 complex; also called human T cells; T cells isolated from healthy human donors
T2 sequence (P07766 23-207 limits assumed): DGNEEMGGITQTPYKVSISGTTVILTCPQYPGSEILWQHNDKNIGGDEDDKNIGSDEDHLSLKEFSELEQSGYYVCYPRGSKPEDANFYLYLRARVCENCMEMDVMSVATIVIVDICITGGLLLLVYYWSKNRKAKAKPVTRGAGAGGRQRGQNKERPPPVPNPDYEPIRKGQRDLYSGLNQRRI

EC50 (human ENPP3 on cells [2]): 0.51 nM
EC50 (human CD3 on T cells): 132 nM
B1: NPP3B815 (bispecific antibody, human IgG1, kappa, L234A L235A)
heavy 1: EIVLTQSPATLSASPGERVTLSCSASSSVSYMNWYQQKPGCAPRRWIYDSSKLASGVPARFSGSGSGRDYTLTISSLEPEDFAVYYCQQWSRNPPTFGGGTKVEIKGGGSGGSGGCPPCGGSGGQVQLVQSGAEVKKPGSSVKVSCKASGYTFTRSTMHWVKQAPGQGLEWIGYINPSSAYTNYNQKFQGRVTLTADKSTSTAYMELSSLRSEDTAVYYCASPQVHYDYAGFPYWGCGTLVTVSSEPKSSDKTHTCPPCPAPEAAGGPSVFLFPPKPKDTLMISRTPEVTCVVVSVSHEDPEVKFNWYVDGVEVHNAKTKPREEQYNSTYRVVSVLTVLHQDWLNGKEYKCKVSNKALPAPIEKTISKAKGQPREPQVYTLPPSREEMTKNQVSLWCLVKGFYPSDIAVEWESNGQPENNYKTTPPVLDSDGSFFLYSKLTVDKSRWQQGNVFSCSVMHEALHNHYTQKSLSLSPGK
heavy 2: EVQLVESGGGRVKPGGSLRLSCAASGFTFSDYSMNWVRQAPGKGLEWVSSISSISSYVKYADSVKGRFTMSRDNAKNSLFLQMNSLRDEDMAVYYCARGHYFDYWGQGTLVTVSSASTKGPSVFPLAPSSKSTSGGTAALGCLVKDYFPEPVTVSWNSGALTSGVHTFPAVLQSSGLYSLSSVVTVPSSSLGTQTYICNVNHKPSNTKVDKKVEPKSCDKTHTCPPCPAPEAAGGPSVFLFPPKPKDTLMISRTPEVTCVVVSVSHEDPEVKFNWYVDGVEVHNAKTKPREEQYNSTYRVVSVLTVLHQDWLNGKEYKCKVSNKALPAPIEKTISKAKGQPREPQVYTLPPSREEMTKNQVSLSCAVKGFYPSDIAVEWESNGQPENNYKTTPPVLDSDGSFFLVSKLTVDKSRWQQGNVFSCSVMHEALHNRFTQKSLSLSPGK
light: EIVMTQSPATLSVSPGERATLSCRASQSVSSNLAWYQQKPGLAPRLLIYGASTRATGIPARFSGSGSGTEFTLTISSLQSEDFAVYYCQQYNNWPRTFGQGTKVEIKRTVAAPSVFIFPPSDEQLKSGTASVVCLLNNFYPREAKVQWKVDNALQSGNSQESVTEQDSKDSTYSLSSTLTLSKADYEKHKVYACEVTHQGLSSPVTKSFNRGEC
notes: HC2 carries the NPP3B56 Fab and the hole T366S, L368A, Y407V; Fc with L234A, L235A, D265S; The CPPC linker cysteines form disulfides with engineered Cys at L42 and H105 (Chothia); also called NPP3B56×CD3B2030-N106A; ENPP3×CD3 (NPP3B815)
killing EC50 @ 72 hrs; A704; T-cell donor 110040278; E:T 1:1 (human ENPP3 on cells [1]): 0.075 nM
killing EC50 @ 72 hrs; A704; T-cell donor 110040278; E:T 3:1 (human ENPP3 on cells [1]): 0.0484 nM
killing EC50 @ 72 hrs; A704; T-cell donor 110042496; E:T 1:1 (human ENPP3 on cells [1]): 0.132 nM
killing EC50 @ 72 hrs; A704; T-cell donor 110042496; E:T 3:1 (human ENPP3 on cells [1]): 0.0696 nM
killing EC50 @ 72 hrs; A704; T-cell donor 110042593; E:T 1:1 (human ENPP3 on cells [1]): 0.114 nM
killing EC50 @ 72 hrs; A704; T-cell donor 110042593; E:T 3:1 (human ENPP3 on cells [1]): 0.0336 nM
killing EC50 @ 72 hrs; A704; T-cell donor 110044049; E:T 3:1 (human ENPP3 on cells [1]): 0.0524 nM
killing EC50 @ 72 hrs; A704; T-cell donor 888668965; E:T 3:1 (human ENPP3 on cells [1]): 0.0454 nM
killing EC50 @ 72 hrs; VMRCRCW; T-cell donor 110040278; E:T 1:1 (human ENPP3 on cells [1]): 0.243 nM
killing EC50 @ 72 hrs; VMRCRCW; T-cell donor 110040278; E:T 1:3 (human ENPP3 on cells [1]): 0.456 nM
killing EC50 @ 72 hrs; VMRCRCW; T-cell donor 110040278; E:T 3:1 (human ENPP3 on cells [1]): 0.0923 nM
killing EC50 @ 72 hrs; VMRCRCW; T-cell donor 110042496; E:T 1:1 (human ENPP3 on cells [1]): 0.465 nM
killing EC50 @ 72 hrs; VMRCRCW; T-cell donor 110042496; E:T 3:1 (human ENPP3 on cells [1]): 0.128 nM
killing EC50 @ 72 hrs; VMRCRCW; T-cell donor 110042593; E:T 1:1 (human ENPP3 on cells [1]): 0.225 nM
killing EC50 @ 72 hrs; VMRCRCW; T-cell donor 110042593; E:T 3:1 (human ENPP3 on cells [1]): 0.0795 nM
killing EC50 @ 72 hrs; VMRCRCW; T-cell donor 110044049; E:T 1:1 (human ENPP3 on cells [1]): 0.151 nM
killing EC50 @ 72 hrs; VMRCRCW; T-cell donor 110044049; E:T 1:3 (human ENPP3 on cells [1]): 0.226 nM
killing EC50 @ 72 hrs; VMRCRCW; T-cell donor 110044049; E:T 3:1 (human ENPP3 on cells [1]): 0.115 nM
killing EC50 @ 72 hrs; VMRCRCW; T-cell donor 110048457; E:T 1:1 (human ENPP3 on cells [1]): 0.177 nM
killing EC50 @ 72 hrs; VMRCRCW; T-cell donor 110048457; E:T 1:3 (human ENPP3 on cells [1]): 0.276 nM
killing EC50 @ 72 hrs; VMRCRCW; T-cell donor 110048457; E:T 3:1 (human ENPP3 on cells [1]): 0.372 nM
killing EC50 @ 72 hrs; VMRCRCW; T-cell donor 888668965; E:T 1:1 (human ENPP3 on cells [1]): 0.273 nM
killing EC50 @ 72 hrs; VMRCRCW; T-cell donor 888668965; E:T 1:3 (human ENPP3 on cells [1]): 0.469 nM
killing EC50 @ 72 hrs; VMRCRCW; T-cell donor 888668965; E:T 3:1 (human ENPP3 on cells [1]): 0.156 nM
killing EC50 @ 120 hrs; A704; T-cell donor 110040278; E:T 1:1 (human ENPP3 on cells [1]): 0.041 nM
killing EC50 @ 120 hrs; A704; T-cell donor 110040278; E:T 1:3 (human ENPP3 on cells [1]): 0.149 nM
killing EC50 @ 120 hrs; A704; T-cell donor 110042496; E:T 1:1 (human ENPP3 on cells [1]): 0.073 nM
killing EC50 @ 120 hrs; A704; T-cell donor 110042496; E:T 1:3 (human ENPP3 on cells [1]): 0.191 nM
killing EC50 @ 120 hrs; A704; T-cell donor 110042593; E:T 1:1 (human ENPP3 on cells [1]): 0.048 nM
killing EC50 @ 120 hrs; A704; T-cell donor 110042593; E:T 1:3 (human ENPP3 on cells [1]): 0.106 nM
killing EC50 @ 120 hrs; A704; T-cell donor 110044049; E:T 1:1 (human ENPP3 on cells [1]): 0.125 nM
killing EC50 @ 120 hrs; A704; T-cell donor 888668965; E:T 1:3 (human ENPP3 on cells [1]): 0.163 nM
killing EC50 @ 120 hrs; VMRCRCW; T-cell donor 110040278; E:T 1:1 (human ENPP3 on cells [1]): 0.264 nM
killing EC50 @ 120 hrs; VMRCRCW; T-cell donor 110040278; E:T 1:3 (human ENPP3 on cells [1]): 0.332 nM
killing EC50 @ 120 hrs; VMRCRCW; T-cell donor 110042496; E:T 1:1 (human ENPP3 on cells [1]): 0.454 nM
killing EC50 @ 120 hrs; VMRCRCW; T-cell donor 110042496; E:T 1:3 (human ENPP3 on cells [1]): 0.5 nM
killing EC50 @ 120 hrs; VMRCRCW; T-cell donor 110042593; E:T 1:1 (human ENPP3 on cells [1]): 0.218 nM
killing EC50 @ 120 hrs; VMRCRCW; T-cell donor 110042593; E:T 1:3 (human ENPP3 on cells [1]): 0.485 nM
killing EC50 @ 120 hrs; VMRCRCW; T-cell donor 110044049; E:T 1:1 (human ENPP3 on cells [1]): 0.216 nM
killing EC50 @ 120 hrs; VMRCRCW; T-cell donor 110044049; E:T 1:3 (human ENPP3 on cells [1]): 0.337 nM
killing EC50 @ 120 hrs; VMRCRCW; T-cell donor 110048457; E:T 1:1 (human ENPP3 on cells [1]): 0.21 nM
killing EC50 @ 120 hrs; VMRCRCW; T-cell donor 110048457; E:T 1:3 (human ENPP3 on cells [1]): 0.267 nM
killing EC50 @ 120 hrs; VMRCRCW; T-cell donor 888668965; E:T 1:1 (human ENPP3 on cells [1]): 0.345 nM
killing EC50 @ 120 hrs; VMRCRCW; T-cell donor 888668965; E:T 1:3 (human ENPP3 on cells [1]): 0.379 nM
